Data on three molecules can be found in patent US20240352434, “COMPOSITIONS COMPRISING A VARIANT CAS12I3 POLYPEPTIDE AND USES THEREOF” (Arbor Biotechnologies, Inc., published 2024).

Positions count from the first letter of the chain named.

T1: Cas12i3 S559R (Unidentified, S559R)
T1 chain: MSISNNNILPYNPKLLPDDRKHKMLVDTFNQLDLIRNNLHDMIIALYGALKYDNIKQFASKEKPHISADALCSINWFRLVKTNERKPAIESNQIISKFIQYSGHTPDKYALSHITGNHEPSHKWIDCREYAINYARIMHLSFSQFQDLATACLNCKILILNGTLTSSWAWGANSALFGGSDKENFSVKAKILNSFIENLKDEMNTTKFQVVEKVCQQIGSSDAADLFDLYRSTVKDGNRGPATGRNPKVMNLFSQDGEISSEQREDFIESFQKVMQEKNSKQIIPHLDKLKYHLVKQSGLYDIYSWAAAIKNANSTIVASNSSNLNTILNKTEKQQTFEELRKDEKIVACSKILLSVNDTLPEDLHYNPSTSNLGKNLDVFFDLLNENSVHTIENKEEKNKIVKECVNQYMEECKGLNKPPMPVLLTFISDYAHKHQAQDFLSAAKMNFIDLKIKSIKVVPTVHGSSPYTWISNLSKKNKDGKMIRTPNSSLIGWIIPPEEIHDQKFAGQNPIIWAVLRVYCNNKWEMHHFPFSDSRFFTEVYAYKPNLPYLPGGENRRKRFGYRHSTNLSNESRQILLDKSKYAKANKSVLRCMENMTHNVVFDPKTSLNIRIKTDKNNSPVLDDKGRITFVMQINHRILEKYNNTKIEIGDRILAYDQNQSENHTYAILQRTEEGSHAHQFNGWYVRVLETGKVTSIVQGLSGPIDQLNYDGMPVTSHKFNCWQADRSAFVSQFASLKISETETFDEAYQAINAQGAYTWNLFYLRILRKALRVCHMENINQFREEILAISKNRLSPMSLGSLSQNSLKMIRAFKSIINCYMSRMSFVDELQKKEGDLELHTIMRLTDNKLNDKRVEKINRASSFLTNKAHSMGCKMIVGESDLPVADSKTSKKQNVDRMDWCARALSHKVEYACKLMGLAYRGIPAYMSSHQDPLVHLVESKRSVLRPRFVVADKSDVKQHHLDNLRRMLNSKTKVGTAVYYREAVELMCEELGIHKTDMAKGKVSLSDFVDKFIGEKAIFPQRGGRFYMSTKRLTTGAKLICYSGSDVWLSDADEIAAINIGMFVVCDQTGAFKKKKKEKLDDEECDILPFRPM

T2: Cas12i3 S536R N711R S801R (Unidentified, S536R,N711R,S801R)
T2 chain: T1 chain with S536R, R559S, N711R, S801R

B1: AAVS1_T3 crRNA ; AAVS1_T3 target (ssRNA ; dsDNA)
RNA: AUAGUGUGUCCUUAGUUGACAUGUGAGAAUGGUGCGUCCUAG
DNA 1: GTGAGAATGGTGCGTCCTAG
DNA 2: CTAGGACGCACCATTCTCAC
B2: EMX1_T5 crRNA ; EMX1_T5 target (ssRNA ; dsDNA)
RNA: AUAGUGUGUCCUUAGUUGACAUUAUUAUUCCCAUAGGGAAGG
DNA 1: TATTATTCCCATAGGGAAGG
DNA 2: CCTTCCCTATGGGAATAATA
B3: VEGFA_T2 crRNA ; VEGFA_T2 target (ssRNA ; dsDNA)
RNA: AUAGUGUGUCCUUAGUUGACAUAAUCCUCCACCAGUCAUGGU
DNA 1: AATCCTCCACCAGTCATGGT
DNA 2: ACCATGACTGGTGGAGGATT

One data set has as its target T1, Cas12i3 S559R. The data set can be described thus: cell_activity; fold change in % indels, HEK293T; PAM not stated in example. On the procedure: (§1) Approximately 16 hours prior to transfection, 100 μl of 25,000 HEK293T cells in DMEM/10% FBS+Pen/Strep were plated into each well of a 96-well plate. On the day of transfection, the cells were 70-90% confluent. For each well to be transfected, a mixture of 0.5 μl of Lipofectamine 2000 and 9.5 μl of Opti-MEM was prepared and then incubated at room temperature for 5-20 minutes (Solution 1). […] In the case of negative controls, the crRNA was not included in Solution 2. The solution 1 and solution 2 mixtures were mixed by pipetting up and down and then incubated at room temperature for 25 minutes. Following incubation, 20 μL of the Solution 1 and Solution 2 mixture were added dropwise to each well of a 96 well plate containing the cells. 72 hours post transfection, cells are trypsinized by adding 10 μL of TrypLE to the center of each well and incubated for approximately 5 minutes. 100 μL of D10 media was then added to each well and mixed to resuspend cells. The cells were then spun down at 500 g for 10 minutes, and the supernatant was discarded. QuickExtract buffer was added to ⅕ the amount of the original cell suspension volume. Cells were incubated at 65° C. for 15 minutes, 68° C. for 15 minutes, and 98° C. for 10 minutes.
(§2) Samples for Next Generation Sequencing were prepared by two rounds of PCR. The first round (PCR1) was used to amplify specific genomic regions depending on the target. PCR1 products were purified by column purification. Round 2 PCR (PCR2) was done to add Illumina adapters and indexes. Reactions were then pooled and purified by column purification. Sequencing runs were done with a 150 cycle NextSeq v2.5 mid or high output kit.
Turning to B1, the binding signal was 1.28 fold of wild-type.
The same measure, in the same setting: for B2 the value was 0.95 fold of wild-type.
Same read-out and setting: for B3 the value was 1.17 fold of wild-type.

A further data set has as its target T2, Cas12i3 S536R N711R S801R. The description is as above. The method, then: as §1, §2
Regarding B1, the binding signal was 2.1 fold of wild-type.
B2: the binding signal is 1.68 fold of wild-type.
The same measure, in the same setting: the figure for B3 is 2.55 fold of wild-type.
